Residue numbers refer to the chain shown, from its start.
B1: variant 5-37 (Fc fusion)
VHH: EVQLVESGGGLVQPGGSLRLSCAASGSTFSINAMGWFRQAPGKEREFVGGISRSGATTNYADSVKGRFTISADNSKNTAYLQMNSLKPEDTAVYYCAADGVPEYSDYASGPVWGQGTLVTVSS
B2: variant 5-1 (Fc fusion)
VHH: EVQLVESGGGLVQPGGSLRLSCAASGGTFSSIGMGWFRQAPGKEREFVAAISWDGGATAYADSVKGRFTISADNSKNTAYLQMNSLKPEDTAVYYCAKEDVGKPFDWGQGTLVTVSS
B3: variant 5-20 (Fc fusion)
VHH: EVQLVESGGGLVQPGGSLRLSCAASGRTIVPYTMGWFRQAPGKERELVAAISPSAFTEYADSVKGRFTISADNSKNTAYLQMNSLKPEDTAVYYCAARRWGYDWGQGTLVTVSS
B4: variant 2-2 (antibody, V domains shown)
VH: EVQLLESGGGLVQPGGSLRLSCAASGFTFSRHAMNWVRQAPGKGLEWVSGISGSGDETYYADSVKGRFTISRDNSKNTLYLQMNSLRAEDTAVYYCARDLPASYYDSSGYYWHNGMDVWGQGTLVTVSS
VL: DIQMTQSPSSLSASVGDRVTITCRASQTINTYLNWYQQKPGKAPKLLIYSASTLQSGVPSRFSGSGSGTDFTLTISSLQPEDFATYYCQQSYSTFTFGQGTKVEIK
B5: variant 2-8 (antibody, V domains shown)
VH: EVQLLESGGGLVQPGGSLRLSCAASGFTFSDFAMAWVRQAPGKGLEWVSAISGSGDITYYADSVKGRFTISRDNSKNTLYLQMNSLRAEDTAVYYCAREADGLHSPWHFDLWGQGTLVTVSS
VL: DIQMTQSPSSLSASVGDRVTITCRASQSIDTYLNWYQQKPGKAPKLLIYAASALASGVPSRFSGSGSGTDFTLTISSLQPEDFATYYCQQSYSAPPYTFGQGTKVEIK
B6: variant 2-12 (antibody, V domains shown)
VH: EVQLLESGGGLVQPGGSLRLSCAASGFTFSDYPMNWVRQAPGKGLEWVSTISGSGGITFYADSVKGRFTISRDNSKNTLYLQMNSLRAEDTAVYYCVRHDEYSFDYWGQGTLVTVSS
VL: B5 VL with T31N, A50G, A51V, A55Q, Y92H, T98F
B7: variant 2-13 (antibody, V domains shown)
VH: B6 VH with T50A, G56D, I57N, F59Y
VL: B5 VL with A50G, A55E, Y92H, T98F
B8: variant 2-5 (antibody, V domains shown)
VH: B5 VH
VL: B5 VL with D30H
B9: 2-18 (antibody, V domains shown)
VH: EVQLLESGGGLVQPGGSLRLSCAASGFTFSSYAMYWVRQAPGKGLEWVSAISGSAGSTYYADSVKGRFTISRDNSKNTLYLQMNSLRAEDTAVYYCARDTNDFWSGYSIFDPWGQGTLVTVSS
VL: DIQMTQSPSSLSASVGDRVTITCTGTSSDIGSYNLVSWYQQKPGKAPKLLIYEGTKRPSGVPSRFSGSGSGTDFTLTISSLQPEDFATYYCCSYAGSRTYVFGQGTKVEIK
notes: also called variant 2-18
B10: 2-19 (antibody, V domains shown)
VH: EVQLLESGGGLVQPGGSLRLSCAASGFTFSSYTMSWVRQAPGKGLEWVSVISGSGGSTYYADSVKGRFTISRDNSKNTLYLQMNSLRAEDTAVYYCAREGYRDYLWYFDLWGQGTLVTVSS
VL: DIQMTQSPSSLSASVGDRVTITCTGTSTDVGSYNLVSWYQQKPGKAPKLLIYEGTKRPSGVPSRFSGSGSGTDFTLTISSLQPEDFATYYCCSYAGSYTSVVFGQGTKVEIK
notes: also called variant 2-19
B11: 2-2 (second entry, printed after 2-19) (antibody, V domains shown)
VH: EVQLLESGGGLVQPGGSLRLSCAASGFTFSSYDMSWVRQAPGKGLEWVSVISGSGGSTYYADSVKGRFTISRDNSKNTLYLQMNSLRAEDTAVYYCAKGPLVGWYFDLWGQGTLVTVSS
VL: B10 VL with T28S, D29N, Y98S, T99S, S100F
B12: 2-17 (antibody, V domains shown)
VH: EVQLLESGGGLVQPGGSLRLSCAASGFTFSNYAMSWVRQAPGKGLEWVSAISGSAGSTYYADSVKGRFTISRDNSKNTLYLQMNSLRAEDTAVYYCARVRQGLRRTWYYFDYWGQGTLVTVSS
VL: DIQMTQSPSSLSASVGDRVTITCTGTSSDVGSSNLVSWYQQKPGKAPKLLIYEGSKRPSGVPSRFSGSGSGTDFTLTISSLQPEDFATYYCCSYAGSLYVFGQGTKVEIK
notes: also called variant 2-17
B13: 2-12 (antibody, V domains shown)
VH: B6 VH
VL: B5 VL with T31N, A50G, A51V, A55Q, Y92H, T98F
notes: also called variant 2-12
B14: 2-13 (antibody, V domains shown)
VH: B6 VH with T50A, G56D, I57N, F59Y
VL: B5 VL with A50G, A55E, Y92H, T98F
notes: also called variant 2-13
B15: variant 2-2 (antibody, V domains shown)
VH: B4 VH
VL: B4 VL
B16: variant 5-34 (Fc fusion)
VHH: EVQLVESGGGLVQPGGSLRLSCAASGRTFSRYIMGWFRQAPGKEREFVAAISWSGGDNTYYADSVKGRFTISADNSKNTAYLQMNSLKPEDTAVYYCAAYRIVVGGTSPGDWRWGQGTLVTVSS
B17: variant 2-5 (antibody, V domains shown)
VH: B5 VH
VL: B5 VL with D30H

molecular target: T1, Acro SARS-CoV-2 (COVID-19) S1 protein (SARS-CoV-2, UniProt P0DTC2 16-685); assay: SPR
T1 construct: also called SARS-CoV-2 S1

| Binder | Kd [nM] |
| --- | --- |
| B1 | 30.2 |
| B2 | 15.1 |
| B3 | 14.3 |

molecular target: SARS-CoV-2 S1 (subunit 1) protein (SARS-CoV-2, UniProt P0DTC2 16-685); assay: phage ELISA

| Binder | screening ELISA (Avg), fold over background [fold over background] |
| --- | --- |
| B4 | 23.4 |
| B5 | 32.4 |
| B6 | 18.2 |
| B7 | 19.1 |
| B8 | 30.8 |

molecular target: T2, COVID S1 RBD Fc fusion (Antigen 1) (SARS-CoV-2, UniProt P0DTC2 319-541); assay: phage ELISA
T2 construct: domain: S1 RBD

| Binder | specificity ELISA, fold over background [fold over background] | specificity ELISA, percent binding relative to Acro S1 [%] |
| --- | --- | --- |
| B4 | 39.6 | 100 |
| B5 | 36.5 | 102 |
| B6 | 40.3 | 101 |
| B7 | 32.1 | 118 |
| B8 | 35.9 | 93.7 |

molecular target: T3, S1-Fc (SARS-CoV-2, UniProt P0DTC2 14-685); assay: phage ELISA
T3 construct: also called S1 Fc fusion protein

| Binder | specificity ELISA, fold over background [fold over background] | specificity ELISA, percent binding relative to Acro S1 [%] |
| --- | --- | --- |
| B4 | 4.7 | 12 |
| B5 | 5.4 | 15 |
| B6 | 14.7 | 37 |
| B7 | 3.7 | 13.4 |
| B8 | 24.3 | 63.3 |

molecular target: T4, COVID S1 RBM Fc fusion (Antigen 2) (SARS-CoV-2, UniProt P0DTC2 437-508); assay: phage ELISA
T4 construct: domain: S1 RBM

| Binder | specificity ELISA, fold over background [fold over background] | specificity ELISA, percent binding relative to Acro S1 [%] |
| --- | --- | --- |
| B4 | 1.1 | 2.8 |
| B5 | 1.1 | 3.1 |
| B6 | 1.1 | 2.9 |
| B7 | 0.9 | 3.1 |
| B8 | 1.1 | 3 |

molecular target: T5, SARS-CoV-2 S1 protein (SARS-CoV-2, UniProt P0DTC2 16-685); assay: phage ELISA screen on S1, mean
T5 construct: also called SARS-CoV-2 Spike Glycoprotein S1; S1 (subunit 1)

| Binder | ELISA(Avg) [fold over background] |
| --- | --- |
| B9 | 43 |
| B10 | 21.7 |
| B11 | 12.8 |
| B12 | 3.5 |

molecular target: T5, SARS-CoV-2 S1 protein; assay: phage ELISA screen on S1, mean; remark: another data set of the same source

| Binder | ELISA(Avg) [fold over background] |
| --- | --- |
| B9 | 43 |
| B10 | 21.7 |
| B11 | 12.8 |
| B13 | 18.2 |
| B14 | 19.1 |
| B12 | 3.5 |

molecular target: T5, SARS-CoV-2 S1 protein; assay: inhibitor ELISA, competitor ACE2

| Binder | IC50 [nM] |
| --- | --- |
| B13 | 1 |
| B14 | 45 |

molecular target: T5, SARS-CoV-2 S1 protein; assay: ELISA binding titration on coated antigen

| Binder | EC50 [nM] |
| --- | --- |
| B11 | 100 |
| B12 | 100 |

molecular target: T6, SARS-COV2-S1 RBD (mouse IgG2Fc tag) (SARS-CoV-2, UniProt P0DTC2 319-537); assay: FACS, blocks S1 RBD-mFc binding to ACE2 on Vero E6

| Binder | IC50 [nM] |
| --- | --- |
| B15 | 0.56 |
| B1 | 1.01 |
| B16 | 1.21 |
| B2 | 0.75 |
| B3 | 1.23 |
| B17 | 2.15 |

molecular target: T6, SARS-COV2-S1 RBD (mouse IgG2Fc tag); assay: FACS, blocks S1 RBD-mFc binding to ACE2 on Vero E6; remark: another data set of the same source

| Binder | IC50 [nM] |
| --- | --- |
| B15 | 0.56 |
| B17 | 2.15 |

molecular target: T6, SARS-COV2-S1 RBD (mouse IgG2Fc tag); assay: column not explained; likely FACS, S1 RBD on Vero E6

| Binder | MFI Fold Decrease [fold] |
| --- | --- |
| B1 | 8.19 |
| B16 | 5.69 |
| B2 | 10 |
| B3 | 12.4 |

Reference: patent US20210355194A1 (TWIST BIOSCIENCE, published 2021)
